From patent US20100229252, “MEGANUCLEASE VARIANTS CLEAVING A DNA TARGET SEQUENCE FROM THE HUMAN HEMOGLOBIN BETA GENE AND USES THEREOF” (CELLECTIS, published 2010) come the findings set out here.

Holding throughout (assay): cell_activity; CHO extrachromosomal LacZ assay
Series [1] concerns the target T1, I-CreI heterodimer HBB8.3_C3 / HBB8.4_C4 (Chlamydomonas reinhardtii, UniProt P05725;P05725 SEQ:1-167,SEQ:1-167).
T1 chain 1: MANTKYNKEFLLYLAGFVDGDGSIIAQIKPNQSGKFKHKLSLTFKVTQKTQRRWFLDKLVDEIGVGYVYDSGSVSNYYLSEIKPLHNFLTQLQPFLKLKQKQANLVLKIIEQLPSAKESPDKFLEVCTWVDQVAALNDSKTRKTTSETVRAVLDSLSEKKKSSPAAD
T1 chain 2: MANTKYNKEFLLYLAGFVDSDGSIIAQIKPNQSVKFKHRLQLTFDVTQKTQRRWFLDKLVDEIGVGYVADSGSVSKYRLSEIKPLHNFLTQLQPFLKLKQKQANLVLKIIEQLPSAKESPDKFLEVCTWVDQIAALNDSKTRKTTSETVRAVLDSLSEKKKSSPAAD

Series [2] deals with T2, I-CreI heterodimer HBB8.3_I3 / HBB8.4_D4 (Chlamydomonas reinhardtii, UniProt P05725;P05725 SEQ:1-167,SEQ:1-167).
T2 chain 1: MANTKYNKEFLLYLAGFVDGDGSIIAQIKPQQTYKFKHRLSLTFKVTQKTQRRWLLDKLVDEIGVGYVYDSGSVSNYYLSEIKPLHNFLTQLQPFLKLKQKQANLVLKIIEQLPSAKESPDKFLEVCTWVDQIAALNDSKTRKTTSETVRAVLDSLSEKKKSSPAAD
T2 chain 2: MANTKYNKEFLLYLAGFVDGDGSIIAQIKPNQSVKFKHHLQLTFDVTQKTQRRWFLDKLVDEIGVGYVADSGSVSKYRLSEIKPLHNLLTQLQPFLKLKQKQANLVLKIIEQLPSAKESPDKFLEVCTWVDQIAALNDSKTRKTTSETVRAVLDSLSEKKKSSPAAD

Series [3] addresses T3, I-CreI heterodimer HBB8.3_D3 / HBB8.4_D4 (Chlamydomonas reinhardtii, UniProt P05725;P05725 SEQ:1-167,SEQ:1-167).
T3 chain 1: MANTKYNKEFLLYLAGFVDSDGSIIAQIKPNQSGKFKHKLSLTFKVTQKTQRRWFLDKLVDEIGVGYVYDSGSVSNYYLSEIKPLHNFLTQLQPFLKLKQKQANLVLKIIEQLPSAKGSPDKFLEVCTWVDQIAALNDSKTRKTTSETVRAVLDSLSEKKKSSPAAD
T3 chain 2: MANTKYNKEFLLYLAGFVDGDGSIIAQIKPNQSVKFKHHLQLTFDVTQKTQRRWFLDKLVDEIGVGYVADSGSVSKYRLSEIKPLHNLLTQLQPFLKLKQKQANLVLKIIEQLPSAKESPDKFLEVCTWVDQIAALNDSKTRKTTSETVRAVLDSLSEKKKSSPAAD

Series [4] addresses T4, I-CreI heterodimer HBB8.3_E3 / HBB8.4_A4 (Chlamydomonas reinhardtii, UniProt P05725;P05725 SEQ:1-167,SEQ:1-167).
T4 chain 1: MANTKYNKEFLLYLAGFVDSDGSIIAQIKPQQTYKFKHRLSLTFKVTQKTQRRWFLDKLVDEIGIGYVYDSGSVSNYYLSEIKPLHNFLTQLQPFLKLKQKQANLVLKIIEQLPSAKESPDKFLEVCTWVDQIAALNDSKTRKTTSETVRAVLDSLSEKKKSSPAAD
T4 chain 2: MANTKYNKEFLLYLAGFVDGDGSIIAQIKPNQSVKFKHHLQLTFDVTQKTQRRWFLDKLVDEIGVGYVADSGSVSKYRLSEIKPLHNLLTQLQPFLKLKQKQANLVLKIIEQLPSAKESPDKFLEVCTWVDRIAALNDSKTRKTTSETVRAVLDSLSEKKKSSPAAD

The target of series [5] is T5, I-CreI heterodimer HBB8.3_L3 / HBB8.4_A4 (Chlamydomonas reinhardtii, UniProt P05725;P05725 SEQ:1-167,SEQ:1-167).
T5 chain 1: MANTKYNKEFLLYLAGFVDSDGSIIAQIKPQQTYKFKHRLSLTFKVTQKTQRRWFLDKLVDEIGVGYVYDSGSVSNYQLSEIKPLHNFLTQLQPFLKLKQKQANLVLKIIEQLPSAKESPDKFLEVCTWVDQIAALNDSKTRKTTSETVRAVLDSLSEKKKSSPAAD
T5 chain 2: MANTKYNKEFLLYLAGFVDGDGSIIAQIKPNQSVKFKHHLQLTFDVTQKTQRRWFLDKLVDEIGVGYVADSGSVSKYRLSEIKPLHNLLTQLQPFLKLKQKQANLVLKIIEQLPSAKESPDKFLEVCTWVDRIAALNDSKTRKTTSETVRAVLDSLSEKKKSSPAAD

The target of series [6] is T6, I-CreI heterodimer HBB8.3_I3 / HBB8.4_B4 (Chlamydomonas reinhardtii, UniProt P05725;P05725 SEQ:1-167,SEQ:1-167).
T6 chain 1: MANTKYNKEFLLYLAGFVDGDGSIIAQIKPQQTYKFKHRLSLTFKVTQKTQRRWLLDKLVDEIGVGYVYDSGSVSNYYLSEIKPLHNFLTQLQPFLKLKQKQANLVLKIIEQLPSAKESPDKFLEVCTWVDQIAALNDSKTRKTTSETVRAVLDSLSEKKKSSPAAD
T6 chain 2: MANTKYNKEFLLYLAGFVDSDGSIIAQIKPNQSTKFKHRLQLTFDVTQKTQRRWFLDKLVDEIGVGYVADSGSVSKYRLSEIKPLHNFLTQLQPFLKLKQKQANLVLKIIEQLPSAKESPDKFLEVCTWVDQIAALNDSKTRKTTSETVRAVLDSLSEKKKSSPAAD

The target of series [7] is T7, I-CreI heterodimer HBB8.3_C3 / HBB8.4_D4 (Chlamydomonas reinhardtii, UniProt P05725;P05725 SEQ:1-167,SEQ:1-167).
T7 chain 1: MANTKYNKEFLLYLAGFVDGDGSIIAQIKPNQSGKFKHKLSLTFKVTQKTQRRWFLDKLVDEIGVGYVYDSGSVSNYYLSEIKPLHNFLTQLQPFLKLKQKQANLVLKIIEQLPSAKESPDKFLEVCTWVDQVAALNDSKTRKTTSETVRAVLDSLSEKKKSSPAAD
T7 chain 2: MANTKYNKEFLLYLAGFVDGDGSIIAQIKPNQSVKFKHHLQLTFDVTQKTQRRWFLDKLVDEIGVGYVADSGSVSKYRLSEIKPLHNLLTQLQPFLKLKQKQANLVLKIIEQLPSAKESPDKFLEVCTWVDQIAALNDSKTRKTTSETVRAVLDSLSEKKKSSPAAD

The target of series [8] is T8, I-CreI heterodimer HBB8.3_I3 / HBB8.4_A4 (Chlamydomonas reinhardtii, UniProt P05725;P05725 SEQ:1-167,SEQ:1-167).
T8 chain 1: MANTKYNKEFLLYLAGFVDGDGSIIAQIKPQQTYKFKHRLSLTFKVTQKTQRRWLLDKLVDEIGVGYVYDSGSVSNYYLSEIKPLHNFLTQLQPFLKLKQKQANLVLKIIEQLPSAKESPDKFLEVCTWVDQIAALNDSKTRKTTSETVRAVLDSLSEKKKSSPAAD
T8 chain 2: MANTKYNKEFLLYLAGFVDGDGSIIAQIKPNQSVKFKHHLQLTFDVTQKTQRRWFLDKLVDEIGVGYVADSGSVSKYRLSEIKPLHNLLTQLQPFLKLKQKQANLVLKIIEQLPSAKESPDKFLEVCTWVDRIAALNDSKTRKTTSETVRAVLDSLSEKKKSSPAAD

B1: HBB6 (dsDNA)
DNA 1: CTGACTCCTGAGGAGAAGTCTG
DNA 2: CAGACTTCTCCTCAGGAGTCAG
Turning to B1, the activity in series [1] is 1.87 absorbance units; in series [2], 0.12 absorbance units; in series [3] it was 1.09 absorbance units; in series [4], 2.04 absorbance units; in series [5], 1.96 absorbance units; in series [6], 1.88 absorbance units. Moreover, the activity in series [7] was 0.37 absorbance units; in series [8] it was 0.45 absorbance units.

B2: HBB8 (dsDNA)
DNA 1: CTGACTCCTGTGGAGAAGTCTG
DNA 2: CAGACTTCTCCACAGGAGTCAG
Consider B2, for which the activity came to 2.62 absorbance units in series [1]; 1.57 absorbance units in series [2]; 2 absorbance units in series [3]; 2.52 absorbance units in series [4]; 2.32 absorbance units in series [5]; 2.26 absorbance units in series [6]. The activity amounted to 0.72 absorbance units in series [7] and 1.15 absorbance units in series [8].
